Each block holds one binder with its values, some of them ahead of it.
Assays:
Assay in all cases: cell-based or functional assay
[1] = target: T1, IL-22 receptors R1 and R2 on HEK-Blue IL-22 reporter cells (UniProt Q8N6P7 16-574; Q08334 20-325, limits assumed)
T1 sequence (looked up) 1: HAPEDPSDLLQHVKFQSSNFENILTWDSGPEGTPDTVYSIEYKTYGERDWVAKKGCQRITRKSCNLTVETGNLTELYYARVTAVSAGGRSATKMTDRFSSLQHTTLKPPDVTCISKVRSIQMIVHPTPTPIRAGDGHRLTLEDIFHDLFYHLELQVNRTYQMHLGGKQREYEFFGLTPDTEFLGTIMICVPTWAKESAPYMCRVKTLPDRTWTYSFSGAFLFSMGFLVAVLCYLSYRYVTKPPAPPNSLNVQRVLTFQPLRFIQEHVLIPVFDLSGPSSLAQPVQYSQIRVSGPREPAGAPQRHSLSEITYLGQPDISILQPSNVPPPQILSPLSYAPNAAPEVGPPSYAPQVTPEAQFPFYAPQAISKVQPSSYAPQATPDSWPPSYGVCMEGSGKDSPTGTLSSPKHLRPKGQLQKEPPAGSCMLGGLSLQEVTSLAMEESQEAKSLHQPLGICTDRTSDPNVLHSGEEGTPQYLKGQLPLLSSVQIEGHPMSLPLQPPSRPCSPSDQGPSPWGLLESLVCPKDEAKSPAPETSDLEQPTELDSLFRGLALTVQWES
T1 sequence (looked up) 2: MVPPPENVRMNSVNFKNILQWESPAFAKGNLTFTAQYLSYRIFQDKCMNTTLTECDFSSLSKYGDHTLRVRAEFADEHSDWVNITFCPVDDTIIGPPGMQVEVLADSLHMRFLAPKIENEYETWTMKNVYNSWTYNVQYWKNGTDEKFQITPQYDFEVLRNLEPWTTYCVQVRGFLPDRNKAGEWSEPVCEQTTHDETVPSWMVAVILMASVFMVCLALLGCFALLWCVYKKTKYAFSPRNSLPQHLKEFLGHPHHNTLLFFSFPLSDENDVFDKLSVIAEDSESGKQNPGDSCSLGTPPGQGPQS

[2] = target: T2, IFN-gamma receptor on HEK-Dual cells (Human IFN-γ SEAP/Luciferase Reporter Cells, hkd-ifng)
T2 sequence (P15260 whole entry, looked up): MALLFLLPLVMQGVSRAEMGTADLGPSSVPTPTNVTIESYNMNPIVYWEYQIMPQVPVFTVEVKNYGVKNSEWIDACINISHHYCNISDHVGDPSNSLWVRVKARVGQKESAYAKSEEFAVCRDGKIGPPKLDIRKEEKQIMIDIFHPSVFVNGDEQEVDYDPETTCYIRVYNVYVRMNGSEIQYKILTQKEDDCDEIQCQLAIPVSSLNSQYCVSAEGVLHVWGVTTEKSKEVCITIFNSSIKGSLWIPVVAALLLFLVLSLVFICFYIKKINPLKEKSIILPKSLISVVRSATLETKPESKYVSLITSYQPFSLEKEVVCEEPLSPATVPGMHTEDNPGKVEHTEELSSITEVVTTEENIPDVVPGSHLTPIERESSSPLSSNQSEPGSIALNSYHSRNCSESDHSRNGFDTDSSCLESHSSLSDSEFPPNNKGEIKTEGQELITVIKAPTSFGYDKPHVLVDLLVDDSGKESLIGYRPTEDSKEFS
T2 sequence (P38484 whole entry, looked up): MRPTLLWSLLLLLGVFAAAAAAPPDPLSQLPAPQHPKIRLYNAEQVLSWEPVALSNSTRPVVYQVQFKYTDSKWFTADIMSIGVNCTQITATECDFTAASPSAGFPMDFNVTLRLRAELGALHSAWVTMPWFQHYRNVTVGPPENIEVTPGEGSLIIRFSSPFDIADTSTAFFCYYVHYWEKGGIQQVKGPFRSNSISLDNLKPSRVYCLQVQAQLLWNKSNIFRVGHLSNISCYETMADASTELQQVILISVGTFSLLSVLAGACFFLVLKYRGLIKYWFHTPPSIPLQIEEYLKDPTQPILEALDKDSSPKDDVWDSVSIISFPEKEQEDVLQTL

[3] = target: T3, IL-10 receptors R1 and R2 on HEK-Blue IL-10 reporter cells (UniProt Q13651 22-578; Q08334 20-325, limits assumed)
T3 sequence (looked up) 1: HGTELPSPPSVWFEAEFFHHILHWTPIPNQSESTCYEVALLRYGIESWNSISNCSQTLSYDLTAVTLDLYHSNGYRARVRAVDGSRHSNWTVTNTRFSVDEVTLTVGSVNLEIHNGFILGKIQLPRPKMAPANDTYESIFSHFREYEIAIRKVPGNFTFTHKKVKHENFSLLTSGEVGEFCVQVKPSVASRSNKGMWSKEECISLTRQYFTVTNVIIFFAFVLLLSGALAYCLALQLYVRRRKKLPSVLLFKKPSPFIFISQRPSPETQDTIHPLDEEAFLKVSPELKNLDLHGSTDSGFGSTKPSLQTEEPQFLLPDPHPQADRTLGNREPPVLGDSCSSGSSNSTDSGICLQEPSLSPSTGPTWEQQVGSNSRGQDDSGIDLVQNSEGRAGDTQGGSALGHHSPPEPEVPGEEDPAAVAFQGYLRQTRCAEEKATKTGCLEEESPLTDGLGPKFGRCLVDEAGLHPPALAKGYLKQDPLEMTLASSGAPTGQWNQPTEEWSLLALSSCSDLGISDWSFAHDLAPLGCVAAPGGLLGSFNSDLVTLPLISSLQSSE
T3 sequence (looked up) 2: T1 sequence (looked up) 2

[4] = target: IL-2 receptor on IL-2 reporter HEK blue cells (Human IL-2 & IL-15 Reporter Cells, hkb-il2bg)
IL-2 receptor on IL-2 reporter HEK blue cells (Human IL-2 & IL-15 Reporter Cells, hkb-il2bg), sequence (P14784 whole entry, chain 1 of 2): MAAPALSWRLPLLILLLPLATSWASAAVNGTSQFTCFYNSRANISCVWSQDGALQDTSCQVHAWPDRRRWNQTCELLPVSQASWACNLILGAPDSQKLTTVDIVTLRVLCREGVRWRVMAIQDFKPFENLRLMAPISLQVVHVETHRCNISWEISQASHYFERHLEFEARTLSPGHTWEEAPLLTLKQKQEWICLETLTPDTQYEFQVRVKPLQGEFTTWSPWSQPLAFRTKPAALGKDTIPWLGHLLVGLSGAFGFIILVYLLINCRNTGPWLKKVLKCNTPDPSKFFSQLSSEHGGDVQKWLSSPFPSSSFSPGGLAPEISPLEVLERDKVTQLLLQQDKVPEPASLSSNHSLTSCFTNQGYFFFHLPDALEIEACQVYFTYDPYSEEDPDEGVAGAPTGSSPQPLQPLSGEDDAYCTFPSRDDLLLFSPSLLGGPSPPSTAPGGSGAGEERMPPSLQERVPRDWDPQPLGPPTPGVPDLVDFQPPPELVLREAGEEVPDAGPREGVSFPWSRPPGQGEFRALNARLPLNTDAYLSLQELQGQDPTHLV
IL-2 receptor on IL-2 reporter HEK blue cells (Human IL-2 & IL-15 Reporter Cells, hkb-il2bg), sequence (P31785 whole entry, chain 2 of 2, further chain): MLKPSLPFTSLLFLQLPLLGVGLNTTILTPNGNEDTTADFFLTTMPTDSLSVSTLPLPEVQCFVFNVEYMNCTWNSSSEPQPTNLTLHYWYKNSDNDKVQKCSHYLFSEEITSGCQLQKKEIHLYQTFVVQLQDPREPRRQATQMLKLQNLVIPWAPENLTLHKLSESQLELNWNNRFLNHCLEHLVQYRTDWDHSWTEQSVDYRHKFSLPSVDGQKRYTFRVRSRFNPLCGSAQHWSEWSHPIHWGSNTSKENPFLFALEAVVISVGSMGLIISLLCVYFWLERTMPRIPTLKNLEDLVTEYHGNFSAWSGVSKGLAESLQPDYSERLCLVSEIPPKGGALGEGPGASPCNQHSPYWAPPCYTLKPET

EC-50 (IL-22 reporter HEK blue cells, SEAP, absorbance 630 nm) [1]: 2420 pM
B1: ORK22-014 (Foldikine-22, two polyGly InterLinkers) (ligand)
chain: APISESGEIKAIGELDLLFMSLRNACIGGGGGGGGGGAPISSHCRLDKSNFQQPYITNRTFMLAKEASLADNNTDVRLIGEKLFHGVSMSERCYLMKQVLNFTLEEVLFPQSDRFQPYMQEVVPFLARLSNRLSTCHIEGDDLHIQRNVQKLKDTVKKLGESGEIKAIGELDLLFMSLRNACIGGGGGGGGGGAPISSHCRLDKSNFQQPYITNRTFMLAKEASLADNNTDVRLIGEKLFHGVSMSERCYLMKQVLNFTLEEVLFPQSDRFQPYMQEVVPFLARLSNRLSTCHIEGDDLHIQRNVQKLKDTVKKLG

EC50 (HEK Dual cells responding to IFNγ) [2]: 32.8 pM
B2: ORKIFNg-002 (Foldikine-IFNG, single chain dimeric IFN gamma) (ligand)
chain: GSQDPYVKEAENLKKYFNAGHSDVADNGTLFLGILKNWKEESDRKIMQSQIVSFYFKLFKNFKDDQSIQKSVETIKEDMNVKFFNSNKKKRDDFEKLTNYSVTDLNVQRKAIHELIQVMASKPHPGQLWAYVKEAENLKKYFNAGHSDVADNGTLFLGILKNWKEESDRKIMQSQIVSFYFKLFKNFKDDQSIQKSVETIKEDMNVKFFNSNKKKRDDFEKLTNYSVTDLNVQRKAIHELIQVMAELSPAA

The remaining lines, values behind:

B3: IL22_WT (IL-22 WT expressed in CHO cells) (ligand)
chain: APISSHCRLDKSNFQQPYITNRTFMLAKEASLADNNTDVRLIGEKLFHGVSMSERCYLMKQVLNFTLEEVLFPQSDRFQPYMQEVVPFLARLSNRLSTCHIEGDDLHIQRNVQKLKDTVKKLGESGEIKAIGELDLLFMSLRNACI
EC-50 (IL-22 reporter HEK blue cells, SEAP, absorbance 630 nm) [1]: 97.6 pM

B4: MutSC1_controlcenter_21 (ligand)
chain: KSKAVEQVKNAFNKLQEKGIYKAMSEFDIFINYIEAYMTMNFGGLDYLPNMLRDLRDAFSRVKTFFQMKDQLDNLLLKESLLEDFKGYLGCQALSEMIQFYLEEVMPQAENQDPDIKAHVNSLGENLKTLRLRLRRCHRFLPCENKSKAVEQVKNAFNKLQEKGIYKAMSEFDIFINYIEAYMTMNFGGLDYLPNMLRDLRDAFSRVKTFFQMKDQLDNLLLKESLLEDFKGYLGCQALSEMIQFYLEEVMPQAENQDPDIKAHVNSLGENLKTLRLRLRRCHFLPCEN
activation of HEK blue cells, apparent KD fit (drop against MutSC1) [3]: ~2.5 fold

B5: ORK2-011 (foldikine-2, two 8 aa InterLinkers GGGSGGGG) (ligand)
chain: LRPRDLISNINVIVLELKGSETTFMCEYADETATIVEFLNRWITFCQSIISTLTGGGSGGGGTKKTQLQLEHLLLDLQMILNGINNYKNPKLTRMLTFKFYMPKKATELKHLQCLEEELKPLEEVLNLAQSKNFHLRPRDLISNINVIVLELKGSETTFMCEYADETATIVEFLNRWITFCQSIISTLTGGGSGGGGTKKTQLQLEHLLLDLQMILNGINNYKNPKLTRMLTFKFYMPKKATELKHLQCLEEELKPLEEVLNLAQS
EC-50 (IL-2 reporter HEK blue cells, SEAP, absorbance 630 nm) [4]: 171 pM

B6: ORK22-012 (Foldikine-22, two InterLinkers GGPPPPPPGG) (ligand)
chain: APISESGEIKAIGELDLLFMSLRNACIGGPPPPPPGGAPISSHCRLDKSNFQQPYITNRTFMLAKEASLADNNTDVRLIGEKLFHGVSMSERCYLMKQVLNFTLEEVLFPQSDRFQPYMQEVVPFLARLSNRLSTCHIEGDDLHIQRNVQKLKDTVKKLGESGEIKAIGELDLLFMSLRNACIGGPPPPPPGGAPISSHCRLDKSNFQQPYITNRTFMLAKEASLADNNTDVRLIGEKLFHGVSMSERCYLMKQVLNFTLEEVLFPQSDRFQPYMQEVVPFLARLSNRLSTCHIEGDDLHIQRNVQKLKDTVKKLG
EC-50 (IL-22 reporter HEK blue cells, SEAP, absorbance 630 nm) [1]: 43.3 pM
